# Reference: article PMC8229956
# Legend:
# [1] = biological target: Oryza sativa TIR1 wild type with nuclear localisation signal (OsTIR1^WT-NLS) (Oryza sativa)
# [2] = biological target: Oryza sativa TIR1 wild type with nuclear localisation signal (OsTIR1^WT-NLS) (Oryza sativa); remark: listed apart in the source
Substance,"reduction in Mcm4-AID-V5 protein level (anti-V5 immunoblot of total extract, normalised to tubulin) in cells expressing OsTIR1^WT in the absence of NAA, against cells with no OsTIR1 [1]","reduction in Rad52-AID-V5 protein level (anti-V5 immunoblot of total extract, normalised to tubulin) in cells expressing OsTIR1^WT in the absence of NAA, against rad52-AID-V5 cells with no OsTIR1 [2]"
Mcm4-AID-V5 (from UniProt P93830 1-229),14%,
Rad52-AID-V5 (from UniProt P93830 1-229),,14%
